Biological target: TcdB2 toxin (recombinant, full length) (Clostridium difficile)
Test: SPR, TcdB2 immobilized, PepB2 injected; multivalent interaction, no affinity or rate constant determined

Q: With “PepB2 (Peptide 5; amino acids 1769-1787 of TcdB2)” as the substance, how does the molecules of PepB2 calculated to bind a single molecule of TcdB (molecules of PepB2 per molecule of TcdB) read?
A: 250

Reference: patent publication US20180243365A1
